Results as given in publication PMC2812487.

Experiments:
[1] = target: HLA-Cw6 on 721.221 cells; experiment: flow cytometry on cells (Ig-fusion protein staining)
[2] = target: HLA-Cw3 on 721.221 cells; experiment: as above

response [1]: 1.05 MFI
response [2]: 114 MFI
Substance: KIR2DS2-Ig (from UniProt P43631) KYK/KFK
